# Reference: PMC13397619
# B1: NLV3 TCR beta chain (CDR3β only) (parent)
# chain: ASSPTGGSPSPLH
# Variants of: B1
# Assay: T-Switch: Jurkat TCRβ−/− cells expressing a CDR3 saturation-mutagenesis library, stained with two peptide-HLA-A*02:01 tetramers (original and novel peptide) plus anti-CD3, FACS-sorted into four gates, gDNA sequenced
# Details: tetramers 1 µg/mL, 30 min on ice, SP, DP and SW gates expanded about 10 days between rounds ('two to three rounds of selection' in the Methods), unresolved parent, parent is a CDR3 fragment, scale: fold enrichment, numbering: sequential-on-construct, sequence starts at 1
# [1] = with both tetramers (double-negative gate, binds neither): HLA-A*02:01 with … and with …, gate DN: OPPOSITE: higher = more of the variant in the gate that binds neither peptide = LESS binding (or no expression; inferred). Fold enrichment of the CDR3 variant in one FACS gate of a two-tetram
# [2] = with both tetramers (double-positive gate): HLA-A*02:01 with … and with …, gate DP: higher = more of the variant in the gate that binds both peptides. Fold enrichment of the CDR3 variant in one FACS gate of a two-tetramer stain. SP/DP/SW gates were expanded and re-sorted bef
variant,measurement,setting,value
[…] (CDR3 as printed); H13L derived by comparing it with the table's wild-type CDR3 ASSPTGGSPSPLH,enrichment,[1],0.846
same,enrichment,[2],0
[…] (CDR3 as printed); H13C derived by comparing it with the table's wild-type CDR3 ASSPTGGSPSPLH,enrichment,[1],0.646
same,enrichment,[2],0
[…] (CDR3 as printed); A1G derived by comparing it with the table's wild-type CDR3 ASSPTGGSPSPLH,enrichment,[1],0.451
same,enrichment,[2],0
[…] (CDR3 as printed); S2I derived by comparing it with the table's wild-type CDR3 ASSPTGGSPSPLH,enrichment,[1],0.694
same,enrichment,[2],0
[…] (CDR3 as printed); T5C derived by comparing it with the table's wild-type CDR3 ASSPTGGSPSPLH,enrichment,[1],1.08
same,enrichment,[2],0
[…] (CDR3 as printed); H13I derived by comparing it with the table's wild-type CDR3 ASSPTGGSPSPLH,enrichment,[1],0.602
same,enrichment,[2],0
[…] (CDR3 as printed); S3F derived by comparing it with the table's wild-type CDR3 ASSPTGGSPSPLH,enrichment,[1],0.989
same,enrichment,[2],0
[…] (CDR3 as printed); P11H derived by comparing it with the table's wild-type CDR3 ASSPTGGSPSPLH,enrichment,[1],1.37
same,enrichment,[2],0
[…] (CDR3 as printed); S3T derived by comparing it with the table's wild-type CDR3 ASSPTGGSPSPLH,enrichment,[1],0.779
same,enrichment,[2],0
[…] (CDR3 as printed); H13G derived by comparing it with the table's wild-type CDR3 ASSPTGGSPSPLH,enrichment,[1],0.702
same,enrichment,[2],0
[…] (CDR3 as printed); G7I derived by comparing it with the table's wild-type CDR3 ASSPTGGSPSPLH,enrichment,[1],1.05
same,enrichment,[2],0
[…] (CDR3 as printed); S8N derived by comparing it with the table's wild-type CDR3 ASSPTGGSPSPLH,enrichment,[1],1.07
same,enrichment,[2],0
[…] (CDR3 as printed); T5G derived by comparing it with the table's wild-type CDR3 ASSPTGGSPSPLH,enrichment,[1],0.828
same,enrichment,[2],0
[…] (CDR3 as printed); L12I derived by comparing it with the table's wild-type CDR3 ASSPTGGSPSPLH,enrichment,[1],0.883
same,enrichment,[2],0
[…] (CDR3 as printed); S2T derived by comparing it with the table's wild-type CDR3 ASSPTGGSPSPLH,enrichment,[1],0.755
same,enrichment,[2],0
[…] (CDR3 as printed); P4R derived by comparing it with the table's wild-type CDR3 ASSPTGGSPSPLH,enrichment,[1],0.618
same,enrichment,[2],0
[…] (CDR3 as printed); H13N derived by comparing it with the table's wild-type CDR3 ASSPTGGSPSPLH,enrichment,[1],0.56
same,enrichment,[2],0
[…] (CDR3 as printed); A1D derived by comparing it with the table's wild-type CDR3 ASSPTGGSPSPLH,enrichment,[1],0.881
same,enrichment,[2],0
[…] (CDR3 as printed); S8D derived by comparing it with the table's wild-type CDR3 ASSPTGGSPSPLH,enrichment,[1],0.969
same,enrichment,[2],0
[…] (CDR3 as printed); S8Q derived by comparing it with the table's wild-type CDR3 ASSPTGGSPSPLH,enrichment,[1],0.893
same,enrichment,[2],0
[…] (CDR3 as printed); G7K derived by comparing it with the table's wild-type CDR3 ASSPTGGSPSPLH,enrichment,[1],1.36
same,enrichment,[2],0
[…] (CDR3 as printed); S10I derived by comparing it with the table's wild-type CDR3 ASSPTGGSPSPLH,enrichment,[1],0.982
same,enrichment,[2],0
[…] (CDR3 as printed); S2Y derived by comparing it with the table's wild-type CDR3 ASSPTGGSPSPLH,enrichment,[1],0.769
same,enrichment,[2],0
[…] (CDR3 as printed); G7L derived by comparing it with the table's wild-type CDR3 ASSPTGGSPSPLH,enrichment,[1],1.32
same,enrichment,[2],0
[…] (CDR3 as printed); S3V derived by comparing it with the table's wild-type CDR3 ASSPTGGSPSPLH,enrichment,[1],0.951
same,enrichment,[2],0
[…] (CDR3 as printed); P4G derived by comparing it with the table's wild-type CDR3 ASSPTGGSPSPLH,enrichment,[1],0.753
same,enrichment,[2],0
[…] (CDR3 as printed); A1C derived by comparing it with the table's wild-type CDR3 ASSPTGGSPSPLH,enrichment,[1],1.24
same,enrichment,[2],0
[…] (CDR3 as printed); A1V derived by comparing it with the table's wild-type CDR3 ASSPTGGSPSPLH,enrichment,[1],0.797
same,enrichment,[2],0
[…] (CDR3 as printed); S3L derived by comparing it with the table's wild-type CDR3 ASSPTGGSPSPLH,enrichment,[1],0.942
same,enrichment,[2],0
[…] (CDR3 as printed); P9S derived by comparing it with the table's wild-type CDR3 ASSPTGGSPSPLH,enrichment,[1],0.771
same,enrichment,[2],0
[…] (CDR3 as printed); P4F derived by comparing it with the table's wild-type CDR3 ASSPTGGSPSPLH,enrichment,[1],1.02
same,enrichment,[2],0
[…] (CDR3 as printed); S8H derived by comparing it with the table's wild-type CDR3 ASSPTGGSPSPLH,enrichment,[1],0.901
same,enrichment,[2],0
[…] (CDR3 as printed); G7C derived by comparing it with the table's wild-type CDR3 ASSPTGGSPSPLH,enrichment,[1],0.947
same,enrichment,[2],0
[…] (CDR3 as printed); S8K derived by comparing it with the table's wild-type CDR3 ASSPTGGSPSPLH,enrichment,[1],0.743
same,enrichment,[2],0
[…] (CDR3 as printed); T5H derived by comparing it with the table's wild-type CDR3 ASSPTGGSPSPLH,enrichment,[1],0.879
same,enrichment,[2],0
[…] (CDR3 as printed); P9W derived by comparing it with the table's wild-type CDR3 ASSPTGGSPSPLH,enrichment,[1],1.05
same,enrichment,[2],0
[…] (CDR3 as printed); G7R derived by comparing it with the table's wild-type CDR3 ASSPTGGSPSPLH,enrichment,[1],1.17
same,enrichment,[2],0
[…] (CDR3 as printed); H13T derived by comparing it with the table's wild-type CDR3 ASSPTGGSPSPLH,enrichment,[1],0.524
same,enrichment,[2],0
[…] (CDR3 as printed); P9E derived by comparing it with the table's wild-type CDR3 ASSPTGGSPSPLH,enrichment,[1],0.929
same,enrichment,[2],0
[…] (CDR3 as printed); P4Q derived by comparing it with the table's wild-type CDR3 ASSPTGGSPSPLH,enrichment,[1],1.2
same,enrichment,[2],0
[…] (CDR3 as printed); L12K derived by comparing it with the table's wild-type CDR3 ASSPTGGSPSPLH,enrichment,[1],0.756
same,enrichment,[2],0
[…] (CDR3 as printed); P4H derived by comparing it with the table's wild-type CDR3 ASSPTGGSPSPLH,enrichment,[1],0.553
same,enrichment,[2],0
[…] (CDR3 as printed); G7W derived by comparing it with the table's wild-type CDR3 ASSPTGGSPSPLH,enrichment,[1],1.22
same,enrichment,[2],0
[…] (CDR3 as printed); G6T derived by comparing it with the table's wild-type CDR3 ASSPTGGSPSPLH,enrichment,[1],1.01
same,enrichment,[2],0
[…] (CDR3 as printed); G6V derived by comparing it with the table's wild-type CDR3 ASSPTGGSPSPLH,enrichment,[1],1.33
same,enrichment,[2],0
[…] (CDR3 as printed); P11M derived by comparing it with the table's wild-type CDR3 ASSPTGGSPSPLH,enrichment,[1],0.318
same,enrichment,[2],0
[…] (CDR3 as printed); P11Q derived by comparing it with the table's wild-type CDR3 ASSPTGGSPSPLH,enrichment,[1],0.777
same,enrichment,[2],0
[…] (CDR3 as printed); G7A derived by comparing it with the table's wild-type CDR3 ASSPTGGSPSPLH,enrichment,[1],0.658
same,enrichment,[2],0
[…] (CDR3 as printed); G6S derived by comparing it with the table's wild-type CDR3 ASSPTGGSPSPLH,enrichment,[1],0.376
same,enrichment,[2],0
[…] (CDR3 as printed); G6W derived by comparing it with the table's wild-type CDR3 ASSPTGGSPSPLH,enrichment,[1],1.44
same,enrichment,[2],0
[…] (CDR3 as printed); G6L derived by comparing it with the table's wild-type CDR3 ASSPTGGSPSPLH,enrichment,[1],0.967
same,enrichment,[2],0
[…] (CDR3 as printed); S10D derived by comparing it with the table's wild-type CDR3 ASSPTGGSPSPLH,enrichment,[1],0.754
same,enrichment,[2],0
[…] (CDR3 as printed); S10W derived by comparing it with the table's wild-type CDR3 ASSPTGGSPSPLH,enrichment,[1],1.12
same,enrichment,[2],0
[…] (CDR3 as printed); T5K derived by comparing it with the table's wild-type CDR3 ASSPTGGSPSPLH,enrichment,[1],0.965
same,enrichment,[2],0
[…] (CDR3 as printed); P4A derived by comparing it with the table's wild-type CDR3 ASSPTGGSPSPLH,enrichment,[1],0.738
same,enrichment,[2],0
[…] (CDR3 as printed); S3N derived by comparing it with the table's wild-type CDR3 ASSPTGGSPSPLH,enrichment,[1],0.483
same,enrichment,[2],0
[…] (CDR3 as printed); S2H derived by comparing it with the table's wild-type CDR3 ASSPTGGSPSPLH,enrichment,[1],0.777
same,enrichment,[2],0
[…] (CDR3 as printed); P11I derived by comparing it with the table's wild-type CDR3 ASSPTGGSPSPLH,enrichment,[1],1.19
same,enrichment,[2],0
